Values quoted from earlier work, collected in publication PMC7246992.
Where two headings read alike, the source gives them in different places.

Key:
[1] = target: linear ubiquitin (Homo sapiens) (UniProt P0CG48)
[2] = target: linear ubiquitin (Homo sapiens) (UniProt P0CG48); remark: listed apart in the source

Sequence of A20 ZF7 (P21580 756-790): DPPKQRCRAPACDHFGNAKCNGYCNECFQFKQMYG
Sequence of optineurin UBAN (Q96CV9 416-510): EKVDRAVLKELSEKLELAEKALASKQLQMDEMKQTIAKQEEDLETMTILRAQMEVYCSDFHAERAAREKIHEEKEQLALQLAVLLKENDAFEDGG

Kd [1] [µM]	Kd [2] [nM]	Substance
9	–	A20 ZF7 (from UniProt P21580)
–	1000	optineurin UBAN (from UniProt Q96CV9)
